From patent publication US6709650B1, “Spray-dried microparticles and their use as therapeutic vehicles” (Elam Drug Delivery Limited, priority 1991, dated 2004) come the findings set out here.

Data set [1] is described as follows: Structural integrity of protein after spray-drying (gel filtration, tryptic peptide mapping, reverse phase, capillary electrophoresis). It counts as physicochemical. Particulars: microparticles dissolved in aqueous medium, compared with original material. The procedure: Under the conditions described, with a nozzle pressure of 7.5 bar, microparticles were produced with a particle size of 4.7 μm. These soluble microparticles were smooth and spherical with less than 1% of the particles over a particle size of 6 μm. The microparticles were dissolved in aqueous medium and the molecular weight of the HSA determined by gel filtration chromatography. The resultant chromatograms for the original and spray-dried HSA are shown (FIG. 1).
(§1) Alpha-1 antitrypsin derived from human serum was spray-dried under conditions similar to Example 1 with an inlet temperature of 150° C. and an outlet temperature of 80° C. In all other respects the conditions for drying were the same as Example 1. […] The microparticles were dissolved in aqueous medium and analysed for retention of protein structure and normal trypsin inhibitory activity, then compared to the original freeze dried starting material.
For orientation: Size exclusion chromatography separates by hydrodynamic size, large species first.

Another data set deals with T1, trypsin (Bos taurus, UniProt P00760).
T1 construct: gene PRSS1
T1 sequence (P00760 24-246): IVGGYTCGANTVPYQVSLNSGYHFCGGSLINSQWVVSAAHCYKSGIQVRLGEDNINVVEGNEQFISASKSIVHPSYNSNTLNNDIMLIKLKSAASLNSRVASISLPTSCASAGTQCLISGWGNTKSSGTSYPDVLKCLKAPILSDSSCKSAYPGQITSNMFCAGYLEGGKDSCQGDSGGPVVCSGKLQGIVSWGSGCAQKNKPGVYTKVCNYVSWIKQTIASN
Put plainly: Trypsin inhibitory activity of spray-dried alpha-1 antitrypsin vs freeze dried starting material. It counts as biochemical. The following applies: within the experimental error. The procedure: as §1

For data set [2] the following is noted: soluble HSA microcapsules dissolved in water or extracted; TLC or HPLC.
Experimental: The beclomethasone was extracted from the microcapsules by the precipitation of the HSA in 10% TCA, and the supernatant was extracted into ethanol. The ethanol extract was analysed using HPLC, at a wavelength 242 nm.
The soluble microcapsules thus made were sampled, characterised and analysed for drug content.

“Alpha-1 antitrypsin: Alpha-1 antitrypsin derived from human serum, spray-dried to soluble microparticles of mean size 4.5 μm”: in data set [1], the “structural change of the protein after spray-drying” value is listed as “no significant structural changes”. Also, the “retention of inhibitory activity after spray-drying” value in the data set with trypsin is on record as “full retention of inhibitory activity”.

For the compound `C[C@H]1C[C@H]2[C@@H]3CCC4=CC(=O)C=C[C@]4(C)[C@@]3(Cl)[C@@H](O)C[C@]2(C)[C@@]1(O)C(=O)CO` [beclomethasone], in data set [2], the “state of the active compound on dissolution of the microcapsules” value is reported as “majority of the active compound was in the free state”.
